For one test, the system named is pEY. Kind of test: In vitro kinase library screen: activity towards pEY. In kind it is biochemical. Particulars: 5 ul of expressed protein. The protocol:
Proteins were produced in an in vitro transcription and translation reaction. […] The unbound components of the reaction containing endogenous kinases were removed by three washes with TT-buffer (25 mM Tris-HCl buffer pH 7.4 and 0.004% Triton), two five minutes washings with high-salt wash buffer (25 mM Tris-HCl buffer pH 7.4, 0.004% Triton, 1M NaCl and 5 mM DTT) and 3 more washes with TT-buffer. To these immobilized and purified proteins a tyrosine kinase substrate, 5 nM pEY (poly Glu-Tyr, Sigma, MO), was added in a 50 μl reaction solution containing 5 mM MgCl2, 5 mM MnCl2, 100 μM ATP, 25 mM Tris-HCl buffer pH 7.4, 0.05 mM Na3VO4, 0.004% TritonX-100, 2 mM DTT and EDTA-free protease inhibitor (Roche Molecular Biochemicals). This mixture was incubated with shaking at room temperature overnight to allow phosphorylation of the pEY substrate by the immobilized kinases. Following this incubation, 45 μl of this mixture was transferred to a streptavidin or avidin-coated NPT IPR plate coated with biotinylated anti-phosphotyrosine antibody (PY20, Zymed labs, CA) followed by incubation for 30 minutes at room temperature to allow the binding of the phosphorylated pEY substrate to the PY20 coated NPT plate. Following this binding step, 50 ng Sulfo-TAG labeled anti-phosphotyrosine in buffer containing 25 mM Tris-HCl buffer pH 7.4, 5 mM MgCl2, 0.05 mM Na3VO4, 0.004% TritonX-100, 2 mM DTT and 0.05% IgG was added followed by incubation at room temperature for 30 mm. The unbound reagents were removed by one time washing with water, and the TAG label was detected in presence of 150 μl IPR assay buffer (0.4 mM Gly-Gly buffer, pH 7.8, 1 mM EDTA, 0.1 M TPA). The ECL signals were measured using an imaging plate reader.
(§1) Proteins were produced in an in vitro transcription and translation reaction as described in the Materials and Methods. […] The reaction was stopped by mixing with BB2 buffer. Biotinylated proteins from 50 μl of the mixture (representing 0.5 μl to 5 μl of TnT reaction) were immobilized onto streptavidin or avidin coated NPT-IPR plates by shaking at room temperature for 45 min. The activity of the immobilized protein towards pEY or autophosphorylation was further assayed by the methods described in examples 7 and 8.

Test [1] concerns autophosphorylation (phosphotyrosine). The test can be described thus: In vitro kinase library screen: autophosphorylation. The class given is biochemical. The protocol: Proteins were produced from DNA plasmids of Mock Luciferase, Promega, tyrosine kinase clone Spleen Tyrosine kinase (SYK, IMAGE ID# 3870426) and Eph receptor-A7 (EphA7, IMAGE ID# 3991628) (Incyte Genomics, CA) and immobilized on streptavidin or avidin coated NPT-IPR plates as described in the Example 7. To promote autophosphorylation in these immobilized and purified proteins, Mn++ ions were added in a 50 μl reaction containing 5 mM MgCl2, 5 mM MnCl2, 100 μM ATP, 25 mM Tris-HCl buffer pH 7.4, 0.05 mM Na3VO4, 0.004% TritonX-100, 2 mM DTT and EDTA-free protease inhibitor (Roche Molecular Biochemicals). This mixture was incubated with shaking at room temperature overnight to allow autophosphorylation. Following this incubation, wells were washed 2 times with TT-buffer and 2 times with water. Following this step, 50 ng Sulfo-TAG labeled anti-phosphotyrosine in buffer containing 25 mM Tris-HCl buffer pH 7.4, 5 mM MgCl2, 0.05 mM Na3VO4, 0.004% TritonX-100, 2 mM DTT and 0.05% IgG in a final volume of 50 μl was added followed by incubation at room temperature for 45 min. The unbound reagents were removed by one time washing with water, and the TAG label was detected in presence of 150 μl IPR assay buffer (0.4 mM Gly—Gly buffer, pH 7.8, 1 mM EDTA, 0.1 M TPA). The ECL signals were measured using an imaging plate reader.
as §1

In patent US7063946B2, “Methods, reagents, kits and apparatus for protein function analysis” (Meso Scale Technologies, LLC., priority 2001, dated 2006) one finds HTS signal and ECL signal data, which are given here for four molecules.

B1: 4398416: IMAGE clone protein: Csk, c-src tyrosine kinase (protein, UniProt P41241 2-450, looked up)
Tyrosine-protein kinase CSK: SAIQAAWPSGTECIAKYNFHGTAEQDLPFCKGDVLTIVAVTKDPNWYKAKNKVGREGIIPANYVQKREGVKAGTKLSLMPWFHGKITREQAERLLYPPETGLFLVRESTNYPGDYTLCVSCEGKVEHYRIMYHASKLSIDEEVYFENLMQLVEHYTTDADGLCTRLIKPKVMEGTVAAQDEFYRSGWALNMKELKLLQTIGKGEFGDVMLGDYRGNKVAVKCIKNDATAQAFLAEASVMTQLRHSNLVQLLGVIVEEKGGLYIVTEYMAKGSLVDYLRSRGRSVLGGDCLLKFSLDVCEAMEYLEGNNFVHRDLAARNVLVSEDNVAKVSDFGLTKEASSTQDTGKLPVKWTAPEALREKKFSTKSDVWSFGILLWEIYSFGRVPYPRIPLKDVVPRVEKGYKMDAPDGCPPAVYEVMKNCWHLDAATRPTFLQLREQLEHIKTHELHL
On to B1, for which, in the test with pEY, the HTS signal is 683,039. For the same molecule, in test [1], the ECL signal is 349,847.

B2: 4239139: IMAGE clone protein: Fgfr4, fibroblast growth factor receptor 4 (protein, UniProt Q03142 17-799, looked up)
Fibroblast growth factor …: LSLEASEEMEQEPCLAPILEQQEQVLTVALGQPVRLCCGRTERGRHWYKEGSRLASAGRVRGWRGRLEIASFLPEDAGRYLCLARGSMTVVHNLTLLMDDSLTSISNDEDPKTLSSSSSGHVYPQQAPYWTHPQRMEKKLHAVPAGNTVKFRCPAAGNPMPTIHWLKDGQAFHGENRIGGIRLRHQHWSLVMESVVPSDRGTYTCLVENSLGSIRYSYLLDVLERSPHRPILQAGLPANTTAVVGSDVELLCKVYSDAQPHIQWLKHVVINGSSFGADGFPYVQVLKTTDINSSEVEVLYLRNVSAEDAGEYTCLAGNSIGLSYQSAWLTVLPEEDLTWTTATPEARYTDIILYVSGSLVLLVLLLLAGVYHRQVIRGHYSRQPVTIQKLSRFPLARQFSLESRSSGKSSLSLVRGVRLSSSGPPLLTGLVNLDLPLDPLWEFPRDRLVLGKPLGEGCFGQVVRAEAFGMDPSRPDQTSTVAVKMLKDNASDKDLADLVSEMEVMKLIGRHKNIINLLGVCTQEGPLYVIVECAAKGNLREFLRARRPPGPDLSPDGPRSSEGPLSFPALVSCAYQVARGMQYLESRKCIHRDLAARNVLVTEDDVMKIADFGLARGVHHIDYYKKTSNGRLPVKWMAPEALFDRVYTHQSDVWSFEILLWEIFTLGGSPYPGIPVEELFSLLREGHRMERPPNCPSELYGLMRECWHAAPSQRPTFKQLVEALDKVLLAVSEEYLDLRLTFGPFSPSNGDASSTCSSSDSVFSHDPLPLEPSPFPFSDSQTT
Regarding B2, the HTS signal with pEY is recorded as 7,343. Further, in test [1], the ECL signal is 12,588.

B3: 4384416: IMAGE clone protein: BTK, Bruton agammaglobulinemia tyrosine kinase (protein, UniProt Q06187 2-659, looked up)
Tyrosine-protein kinase BTK: AAVILESIFLKRSQQKKKTSPLNFKKRLFLLTVHKLSYYEYDFERGRRGSKKGSIDVEKITCVETVVPEKNPPPERQIPRRGEESSEMEQISIIERFPYPFQVVYDEGPLYVFSPTEELRKRWIHQLKNVIRYNSDLVQKYHPCFWIDGQYLCCSQTAKNAMGCQILENRNGSLKPGSSHRKTKKPLPPTPEEDQILKKPLPPEPAAAPVSTSELKKVVALYDYMPMNANDLQLRKGDEYFILEESNLPWWRARDKNGQEGYIPSNYVTEAEDSIEMYEWYSKHMTRSQAEQLLKQEGKEGGFIVRDSSKAGKYTVSVFAKSTGDPQGVIRHYVVCSTPQSQYYLAEKHLFSTIPELINYHQHNSAGLISRLKYPVSQQNKNAPSTAGLGYGSWEIDPKDLTFLKELGTGQFGVVKYGKWRGQYDVAIKMIKEGSMSEDEFIEEAKVMMNLSHEKLVQLYGVCTKQRPIFIITEYMANGCLLNYLREMRHRFQTQQLLEMCKDVCEAMEYLESKQFLHRDLAARNCLVNDQGVVKVSDFGLSRYVLDDEYTSSVGSKFPVRWSPPEVLMYSKFSSKSDIWAFGVLMWEIYSLGKMPYERFTNSETAEHIAQGLRLYRPHLASEKVYTIMYSCWHEKADERPTFKILLSNILDVMDEES
Regarding B3, in the test on pEY, the HTS signal is reported as 793,874. Also, in test [1], the ECL signal is reported as 1,503,772.

B4: 4238984: IMAGE clone protein: Kdr, kinase insert domain protein receptor (protein, UniProt P35918 20-1345, looked up)
Vascular endothelial growth …: ASVGLPGDFLHPPKLSTQKDILTILANTTLQITCRGQRDLDWLWPNAQRDSEERVLVTECGGGDSIFCKTLTIPRVVGNDTGAYKCSYRDVDIASTVYVYVRDYRSPFIASVSDQHGIVYITENKNKTVVIPCRGSISNLNVSLCARYPEKRFVPDGNRISWDSEIGFTLPSYMISYAGMVFCEAKINDETYQSIMYIVVVVGYRIYDVILSPPHEIELSAGEKLVLNCTARTELNVGLDFTWHSPPSKSHHKKIVNRDVKPFPGTVAKMFLSTLTIESVTKSDQGEYTCVASSGRMIKRNRTFVRVHTKPFIAFGSGMKSLVEATVGSQVRIPVKYLSYPAPDIKWYRNGRPIESNYTMIVGDELTIMEVTERDAGNYTVILTNPISMEKQSHMVSLVVNVPPQIGEKALISPMDSYQYGTMQTLTCTVYANPPLHHIQWYWQLEEACSYRPGQTSPYACKEWRHVEDFQGGNKIEVTKNQYALIEGKNKTVSTLVIQAANVSALYKCEAINKAGRGERVISFHVIRGPEITVQPAAQPTEQESVSLLCTADRNTFENLTWYKLGSQATSVHMGESLTPVCKNLDALWKLNGTMFSNSTNDILIVAFQNASLQDQGDYVCSAQDKKTKKRHCLVKQLIILERMAPMITGNLENQTTTIGETIEVTCPASGNPTPHITWFKDNETLVEDSGIVLRDGNRNLTIRRVRKEDGGLYTCQACNVLGCARAETLFIIEGAQEKTNLEVIILVGTAVIAMFFWLLLVIVLRTVKRANEGELKTGYLSIVMDPDELPLDERCERLPYDASKWEFPRDRLKLGKPLGRGAFGQVIEADAFGIDKTATCKTVAVKMLKEGATHSEHRALMSELKILIHIGHHLNVVNLLGACTKPGGPLMVIVEFCKFGNLSTYLRGKRNEFVPYKSKGARFRQGKDYVGELSVDLKRRLDSITSSQSSASSGFVEEKSLSDVEEEEASEELYKDFLTLEHLICYSFQVAKGMEFLASRKCIHRDLAARNILLSEKNVVKICDFGLARDIYKDPDYVRKGDARLPLKWMAPETIFDRVYTIQSDVWSFGVLLWEIFSLGASPYPGVKIDEEFCRRLKEGTRMRAPDYTTPEMYQTMLDCWHEDPNQRPSFSELVEHLGNLLQANAQQDGKDYIVLPMSETLSMEEDSGLSLPTSPVSCMEEEEVCDPKFHYDNTAGISHYLQNSKRKSRPVSVKTFEDIPLEEPEVKVIPDDSQTDSGMVLASEELKTLEDRNKLSPSFGGMMPSKSRESVASEGSNQTSGYQSGYHSDDTDTTVYSSDEAGLLKMVDAAVHADSGTTLRSPPV
Consider B4, for which the HTS signal in the test on pEY is 107,459. The ECL signal in test [1] is 61,364.
